Assay results reported in the supplement of paper PMC10724198.
± gives the standard deviation of the averaged measurements.

Test system: Saccharomyces cerevisiae
Test: protein stability index of tFT-peptide fusion (C-terminal peptide) (PSI (0-1 scale)); higher = more stable (slower turnover)
Conditions: genetic background: wild type; temperature: 30 C
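Also: PSI is a weighted mean of sequencing reads over stability bins, variants kept only with over 10 reads, mCherry proximal and sfGFP distal, peptide attached via GGGS linker.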

Row | Sequence | protein stability index
1 | ASLVSPSFLGLV | 0.677 ± 0.084
2 | PPPRPPSPLSLA | 0.643 ± 0.1
3 | VGGGASGVGRSG | 0.63009 ± 0.00033
4 | TKKKQKIKKNNS | 0.748 ± 0.042
5 | VPLSPPRTPTLY | 0.648 ± 0.12
6 | VGFFGMGVLPEG | 0.741 ± 0.013
7 | PPSPPCHTVTSA | 0.679 ± 0.054
8 | VGVATRGVGGGM | 0.669 ± 0.032
9 | RKYGWSGIGCRA | 0.659 ± 0.016
10 | CLLPFCFLSHIF | 0.585 ± 0.04
11 | PPTPPCTSSPAR | 0.739 ± 0.084
12 | VLFLVGLCRDFA | 0.553 ± 0.036
13 | LPPFLLPPFFSI | 0.718 ± 0.055
14 | VCDIRSFALWYA | 0.8 ± 0.024
15 | KVGWGMRGVRGG | 0.66 ± 0.015
16 | TPMPSCNHRPED | 0.655 ± 0.03
17 | VFAHCSRHRGST | 0.7103 ± 0.0029
18 | NKKFTKQTCKPK | 0.663 ± 0.0011
19 | KSDSDNCQALTY | 0.679 ± 0.067
20 | PPARTPPGLPRP | 0.723 ± 0.29
21 | AESCRASVVFGV | 0.6849 ± 0.0041
22 | ILFGSILGVPLL | 0.661 ± 0.01
23 | IRSAGEKDRKRE | 0.696 ± 0.03
24 | RVHSRSYNVMLD | 0.6988 ± 0.00049
25 | PFWGKWVPSSYL | 0.7126 ± 0.0053

Row | Sequence | protein stability index
26 | ALIYMRGLGRFF | 0.555 ± 0.025
27 | RKGKARKKQKRI | 0.721 ± 0.1
28 | LPRPPPRYLPPL | 0.711 ± 0.059
29 | RLVFSSCLNALF | 0.724 ± 0.073
30 | VVGWSSGVVEVA | 0.688 ± 0.035
31 | GSSQGCLICSIA | 0.649 ± 0.049
32 | SMFRNSWRKNKS | 0.602 ± 0.012
33 | ALFTFFSARLTR | 0.748 ± 0.044
34 | REKKDKKNSKKI | 0.701 ± 0.022
35 | PRYKQSSFAFKK | 0.669 ± 0.036
36 | LSWSYTGVCRSE | 0.69 ± 0.06
37 | PLGCFQQDVYEK | 0.733 ± 0.089
38 | EGYTPETPCYQK | 0.688 ± 0.029
39 | GSNKWATANKYG | 0.6561 ± 0.0033
40 | AKSKALGLSPRS | 0.649 ± 0.046
41 | IDLTLLRHPAYL | 0.732 ± 0.05
42 | SPPSFLPLPLPS | 0.675 ± 0.033
43 | LSLVSGWVIPGV | 0.687 ± 0.051
44 | FNHYPSPPQRFY | 0.685 ± 0.072
45 | PLHPPLSGPLPP | 0.723 ± 0.021
46 | RKFGQRQKRECN | 0.7085 ± 0.0066
47 | GVAEGRKVGAST | 0.654 ± 0.036
48 | SSDFTSRHTRPP | 0.639 ± 0.035
49 | PLPPPPRLRCSS | 0.649 ± 0.069
50 | VGWGLGGGVVLV | 0.675 ± 0.047

Row | Sequence | protein stability index
51 | KTKKYIQKNKKR | 0.773 ± 0.012
52 | GSRPVSAGCAYS | 0.655 ± 0.038
53 | RSSPRCPPSPGH | 0.7247 ± 0.0018
54 | PPPLPPPTPLPT | 0.681 ± 0.12
55 | NKTKKKKKKKRG | 0.659 ± 0.061
56 | PTGCPPGVTPCL | 0.681 ± 0.022
57 | TARPPSPPSTRL | 0.732 ± 0.036
58 | GGGGAGGWGAVG | 0.67 ± 0.036
59 | LRSIQVHLGSTA | 0.6992 ± 0.0043
60 | DIGGTDYDPAIS | 0.7138 ± 0.0017
61 | PPPLFPALHHPP | 0.639 ± 0.051
62 | LPTLPGWKASCL | 0.674 ± 0.032
63 | KEQKKKLKKKHG | 0.594 ± 0.099
64 | NNYRKKKHNYKK | 0.697 ± 0.011
65 | GVGGGRRGGGGG | 0.6409 ± 0.0036
66 | RPSPVLRASHPP | 0.638 ± 0.0099
67 | FFMEKPSSGCTS | 0.685 ± 0.017
68 | GHVCNSIVPFRV | 0.624 ± 0.022
69 | RGPELDRRLPLC | 0.663 ± 0.03
70 | RPPPHYPHHTAS | 0.673 ± 0.018
71 | TSPPSLLFAMAR | 0.693 ± 0.038
72 | EQRLQRATELGR | 0.52028 ± 0.00016
73 | VLMSCLFFGIRY | 0.54 ± 0.044
74 | KNKKNKKKKTMK | 0.685 ± 0.041
75 | PPPPPPGHLPRL | 0.76 ± 0.05

Row | Sequence | protein stability index
76 | GRAGGDGVGGGV | 0.6382 ± 0.0024
77 | APVTFDKSHVST | 0.669 ± 0.031
78 | PAPPLLPPPSPP | 0.63 ± 0.027
79 | SESKMRKVEPKM | 0.7459 ± 0.00085
80 | PDPHTLTPTGHP | 0.71 ± 0.026
81 | PPSAPPPLPPLL | 0.7599 ± 0.0043
82 | QLRPLSPLPPQP | 0.738 ± 0.029
83 | SSNRKLVRLASS | 0.69 ± 0.084
84 | LKDQFKNKNKSS | 0.531 ± 0.04
85 | PRGSSRSTFFLF | 0.603 ± 0.046
86 | SRGVLLCHCSIA | 0.758 ± 0.12
87 | GQVTAHFRLARV | 0.697 ± 0.049
88 | FGGGSHRRGRCR | 0.68 ± 0.018
89 | SNIKEYKSINGR | 0.666 ± 0.02
90 | GKTNKALDRISI | 0.679 ± 0.038
91 | PPSLLRPYPLLS | 0.66 ± 0.028
92 | LLPPALPESPPP | 0.649 ± 0.0072
93 | VSFPHSRLSLTI | 0.747 ± 0.02
94 | SSRPLYLFSALR | 0.689 ± 0.053
95 | YSHPCLSCREAH | 0.749 ± 0.057
96 | QKKKIRKKKKTT | 0.685 ± 0.0074
97 | GGCVVKVRAQGP | 0.636 ± 0.01
98 | GDLGPADRQPAG | 0.639 ± 0.027
99 | FPPCSPPPPAPL | 0.625 ± 0.05
100 | SPLPRPHRGPPP | 0.58 ± 0.054

Row | Sequence | protein stability index
101 | NPGGRPKNTINP | 0.649 ± 0.11
102 | KAGGGEGRDAWG | 0.667 ± 0.049
103 | PYIKDRYSPANN | 0.781 ± 0.062
104 | FVPPGTTSPNTT | 0.731 ± 0.059
105 | AGVVRGGRGVGI | 0.728 ± 0.025
106 | QGEARRPPSPGR | 0.638 ± 0.19
107 | HALWRASVGQCG | 0.693 ± 0.068
108 | ISRDNSQITRNM | 0.68 ± 0.015
109 | PLSPFLPPPVPL | 0.703 ± 0.13
110 | LADLLRCSYSLS | 0.677 ± 0.046
111 | DRWGGRGDYRCI | 0.72 ± 0.019
112 | SKLRKGNSIDDR | 0.625 ± 0.016
113 | WCIPEAPVATSR | 0.684 ± 0.0083
114 | SLPFSPSFLSSF | 0.67 ± 0.015
115 | DWLAFSYYFSVV | 0.599 ± 0.041
116 | DGSSESRSGTGK | 0.69 ± 0.057
117 | KEKNKIKNREVK | 0.618 ± 0.052
118 | PLAPSPPLPAFC | 0.693 ± 0.02
119 | WFVCVARCPFPF | 0.623 ± 0.035
120 | GGGWGSRGVCLG | 0.65 ± 0.11
121 | VCSLALSRPSTG | 0.6564 ± 0.0018
122 | LFPVTSLFPPLP | 0.706 ± 0.012
123 | SATWQLPGYFLI | 0.681 ± 0.04
124 | VRVALISDRGKQ | 0.738 ± 0.025
125 | GIQIRIDNQKKN | 0.67 ± 0.025

Row | Sequence | protein stability index
126 | VQGGRNGEGGRG | 0.651 ± 0.081
127 | GANLVTGKLTDG | 0.693 ± 0.036
128 | YIQGAPGGLGYP | 0.713 ± 0.0077
129 | SRPLQPLHQPKY | 0.681 ± 0.052
130 | RARRYNRQSTPT | 0.702 ± 0.023
131 | RKAPLLFSLSHK | 0.6761 ± 0.0031
132 | GCAWGVKYEVIL | 0.637 ± 0.05
133 | ACGLGGPSDIDN | 0.672 ± 0.013
134 | QVRTWGGCWGRG | 0.674 ± 0.0083
135 | THGFKQLTTPLD | 0.676 ± 0.014
136 | RSVPHPGGPSPC | 0.649 ± 0.037
137 | CQLCTDPLIDLL | 0.667 ± 0.03
138 | VGSRWNKELSQS | 0.725 ± 0.081
139 | EGGWRYNRNGPN | 0.687 ± 0.025
140 | PPRPPGFPPALF | 0.697 ± 0.018
141 | EGAGGVEGAAWG | 0.7 ± 0.018
142 | VVRLEGGSGAVW | 0.703 ± 0.0085
143 | SGRVELGVVGGG | 0.695 ± 0.04
144 | TNCNSHKLMAAL | 0.679 ± 0.011
145 | PSPRSGPPLASP | 0.6896 ± 0.0012
146 | GKNGKNMDKDNK | 0.676 ± 0.019
